Publication PMC2630241
Where “and” joins values, the source holds several entries; their conditions need not be identical. Equal entries are not always repeated.

Columns and labels:
[1] = biological target: Selenomethionine substituted TRPM7cc (rat) (UniProt Q925B3); assay: crystal structure
[2] = biological target: TRPM7 coiled-coil assembly domain (TRPM7cc), rat TRPM7 residues 1230-1282 (rat) (UniProt Q925B3); assay: crystal structure
[3] = biological target: TRPM7 coiled-coil assembly domain (TRPM7cc), rat TRPM7 residues 1230-1282 (rat) (UniProt Q925B3); assay: AUC
[4] = biological target: TRPM7 coiled-coil assembly domain (TRPM7cc), rat TRPM7 residues 1230-1282 (rat) (UniProt Q925B3); assay: SEC

Selenomethionine substituted TRPM7cc (from UniProt Q925B3 1230-1282) (domain or fragment)
stoichiometry N [1]: 4

TRPM7 coiled-coil assembly domain (TRPM7cc), rat TRPM7 residues 1230-1282 (from UniProt Q925B3 1230-1282) (domain or fragment)
stoichiometry N [2]: 4
stoichiometry N [3]: 4.1 and 3.7
stoichiometry N [4]: 4
